3 substances from article PMC5177622, “Multivalent Histone and DNA Engagement by a PHD/BRD/PWWP Triple Reader Cassette Recruits ZMYND8 to K14ac-Rich Chromatin” (Cell Reports, 2016) can be followed below.

The target in one test is histone H3 K9ac (m36). As to the kind of experiment: anti-FLAG immunoprecipitation and western blot, quantified. The conditions noted are these: HEK293 cells transiently transfected; three biological replicates; anti-H3K9ac blot; parent: est. 1.0; read off a plot. (In general: A western blot detects proteins with antibodies after separation by electrophoresis.)
Test [1] concerns the target ZMYND8 PHD/BRD/PWWP triple reader cassette (Q83-S406), wild type (human). The experiment in a line: ITC; ITC200; peptides titrated into a solution of ZMYND8; single-site binding model; n = 3. In general terms: Isothermal titration calorimetry measures the heat released or taken up as one component is titrated into another.
A further test has as its target histone H3 K36me3 (m36). The experiment in a line: anti-FLAG immunoprecipitation and western blot, quantified. To be noted: HEK293 cells transiently transfected; three biological replicates; anti-H3K36me3 blot; parent: est. 1.0; read off a plot.
The target of the next test is histone H3 K36me (m36). The test is described as above. To be noted: HEK293 cells transiently transfected; three biological replicates; anti-H3K36me blot; parent: est. 1.0; read off a plot.
Another test deals with histone H3 K36me2 (m36). Described as above. The conditions noted are these: HEK293 cells transiently transfected; three biological replicates; anti-H3K36me2 blot; parent: est. 1.0; read off a plot.

“3×FLAG-ZMYND8 full length, wild type (from UniProt Q9ULU4-13) N228F”: the ratio to parent in the test with histone H3 K9ac (m36) came to 0.19.

Broadly, the Kd is the equilibrium constant for the complex coming apart. In test [1], “Histone H3.3 40-aa recombinant peptide, K14ac (from UniProt P84243 2-41)” gave a dissociation constant Kd of 6.8 µM.

“3×FLAG-ZMYND8 full length, wild type (from UniProt Q9ULU4-13) F288A; W291A”: the values for the ratio to parent with histone H3 K36me3 (m36), with histone H3 K36me (m36) and with histone H3 K36me2 (m36) were 0.39, 0.28 and 0.08, respectively.
